Key:
[1] = target: T1, Hmm-hTFRC (REGN2431), monomeric human transferrin receptor ectodomain with N-terminal hexahistidine-myc-myc … (human, UniProt P02786 89-760); assay: blocking ELISA, supernatant; Hmm-hTFRC binding to immobilized human holo-Tf
T1 construct: also called hmm.hTfR(C89-F763); His-myc-myc-hTFRC ecto
In short: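 Plates were coated with anti-hTf goat pAb at 2 µg/mL overnight at 4 °C, then loaded with human holo-Tf at 1 µg/mL for 2 h at room temperature. Bound receptor was detected with TMB and absorbance read at 450 nm.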

[2] = target: T2, mf TFRC ecto-mmh (REGN2054), monomeric monkey (cyno) Tfrc ectodomain with C-terminal myc-myc-hexahistidine tag (monkey (cyno), Macaca fascicularis, UniProt H9EXL1 89-760); assay: SPR (Biacore), mAb from CHO supernatant captured on anti-human Fc, 100 nM mfTfR-mmh injected, 25 C
T2 construct: range 89-760; also called mfTfR-mmh; mfTFR-mmh
Description: (§1) Biacore binding kinetics assays were conducted for the interaction of 32 anti-human TfR IgG1 monoclonal antibodies from CHO supernatants with TfR reagents at 25° C.
(§2) Equilibrium dissociation constants (KD) for the interaction of anti-TfR monoclonal antibodies with human and fascicularis monkey TfR ecto domain recombinant proteins were determined using a real-time surface plasmon resonance (SPR) based Biacore S200 biosensor. All binding studies were performed in 10 mM HEPES, 150 mM NaCl, 3 mM EDTA, and 0.05% v/v surfactant Tween-20, pH 7.4 (HBS-EP) running buffer at […]. The Biacore CM5 sensor surface was first derivatized by amine coupling with a monoclonal mouse anti-human Fc antibody (REGN2567) followed by a step to capture anti-TfR monoclonal antibodies in CHO conditioned media. […] The dissociation of TfR bound to anti-TfR monoclonal antibodies was monitored for 3 minutes in HBS-EP running buffer. At the end of each cycle, the anti-TfR monoclonal antibodies capture surface was regenerated using a 12-sec injection of 20 mM H₃PO₄. The association rate (ka) and dissociation rate (kd) were determined by fitting the real-time binding sensorgrams to a 1:1 binding model with mass transport limitation using Scrubber 2.0 c software. The dissociation equilibrium constant (KD) and dissociative half-life (t½) were calculated from the kinetic rate constants as: […]

[3] = target: T3, hmm.hTfRC (REGN2431), human transferrin receptor extracellular domain with hexahistidine-myc-myc tag (human, UniProt P02786 89-760); assay: SPR (Biacore), mAb captured on anti-human Fc, 100 nM hTFR-mmh, 25 C
T3 construct: Monomeric recombinant protein, 79210 g/mol; also called hTFR-mmh; His-myc-myc-hTFRC ecto
Description: as §1, §2

[4] = target: T2, mf TFRC ecto-mmh (REGN2054), monomeric …; assay: SPR (Biacore), mAb captured on anti-human Fc, 100 nM mfTfR-mmh, 25 C
Description: as §1, §2

[5] = target: T4, REGN2431 (hmm.hTfRC); monomeric human Tfrc ectodomain, amino acids C89-F760, with N-terminal … (human, UniProt P02786 89-760); assay: SPR (Biacore), mAb from CHO supernatant captured on anti-human Fc, 100 nM hTfR-mmh injected, 25 C
T4 construct: also called hTfR-mmh; hTFR-mmh
Description: as §1, §2

T2 sequence (chain, as listed by the source): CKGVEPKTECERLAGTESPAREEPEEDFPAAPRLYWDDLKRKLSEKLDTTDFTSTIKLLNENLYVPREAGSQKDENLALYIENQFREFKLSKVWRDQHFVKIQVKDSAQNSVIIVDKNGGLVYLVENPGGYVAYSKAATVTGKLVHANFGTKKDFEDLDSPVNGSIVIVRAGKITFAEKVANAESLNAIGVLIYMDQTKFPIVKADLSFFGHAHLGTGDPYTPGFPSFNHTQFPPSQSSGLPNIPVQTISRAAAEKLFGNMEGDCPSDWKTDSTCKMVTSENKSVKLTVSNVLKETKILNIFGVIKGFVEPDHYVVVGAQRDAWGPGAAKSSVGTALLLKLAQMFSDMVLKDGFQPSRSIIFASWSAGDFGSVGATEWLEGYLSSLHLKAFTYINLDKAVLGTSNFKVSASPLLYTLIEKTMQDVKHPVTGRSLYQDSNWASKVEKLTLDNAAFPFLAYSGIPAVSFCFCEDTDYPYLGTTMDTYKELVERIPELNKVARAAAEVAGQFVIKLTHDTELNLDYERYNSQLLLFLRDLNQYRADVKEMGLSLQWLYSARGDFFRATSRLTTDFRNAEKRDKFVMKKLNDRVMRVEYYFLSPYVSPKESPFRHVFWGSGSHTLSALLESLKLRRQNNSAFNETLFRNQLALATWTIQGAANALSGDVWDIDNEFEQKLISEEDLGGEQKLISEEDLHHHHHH
T1 sequence (P02786 other isoform, or with tags, fused parts or gaps): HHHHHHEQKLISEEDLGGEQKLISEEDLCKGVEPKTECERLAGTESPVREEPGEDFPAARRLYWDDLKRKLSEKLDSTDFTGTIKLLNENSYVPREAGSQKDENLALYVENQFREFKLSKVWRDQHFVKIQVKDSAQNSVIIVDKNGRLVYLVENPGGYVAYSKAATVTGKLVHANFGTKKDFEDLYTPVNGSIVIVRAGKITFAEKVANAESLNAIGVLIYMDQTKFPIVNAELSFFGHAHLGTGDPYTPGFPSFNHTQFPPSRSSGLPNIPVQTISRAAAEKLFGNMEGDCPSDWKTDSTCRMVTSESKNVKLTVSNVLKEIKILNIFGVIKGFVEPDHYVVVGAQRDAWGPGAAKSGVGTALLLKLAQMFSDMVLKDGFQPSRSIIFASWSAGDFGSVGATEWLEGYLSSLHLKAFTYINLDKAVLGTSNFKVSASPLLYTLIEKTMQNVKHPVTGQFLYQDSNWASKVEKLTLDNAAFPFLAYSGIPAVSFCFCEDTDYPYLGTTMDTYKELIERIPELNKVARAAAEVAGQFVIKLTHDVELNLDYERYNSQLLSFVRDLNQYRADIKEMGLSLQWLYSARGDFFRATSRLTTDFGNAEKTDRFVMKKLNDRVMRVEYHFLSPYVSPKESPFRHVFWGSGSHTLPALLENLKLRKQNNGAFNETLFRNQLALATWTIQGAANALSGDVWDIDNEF
T3 sequence (P02786 other isoform, or with tags, fused parts or gaps): as above
T4 sequence (P02786 other isoform, or with tags, fused parts or gaps): as above

% Blocking [1]	binding result [2]	100 nM Ag Bound (RU) [3]	Kd [3]	koff [3]	kon [3]	t½ [3]	100 nM Ag Bound (RU) [4]	Kd [5]	Binder
40%	–	–	–	–	–	–	–	–	69348 Fab (Fab, V domains shown, CHO supernatant) VH: QVQLVESGGGVVQPGRSLRLSCAASGFTFTTYGMHWVRQAPGKGLEWVAVIWYDGSNKYYGDSVKGRFTISRDNSKNTLYLQMNSLRVDDTAVYYCTRTHGYTRSSDGFDYWGQGTLVTVSS VL: DIQMTQSPSSLSASVGDRVTITCRASQSIRNVLGWFQQKPGKAPQRLIYAASSLQSGVPSRFSGSGSGTEFTLTISSLQPEDFATYYCLQHNFYPLTFGGGTKVEIKR
–	no binding (tested: 100 nM)	680 RU	2.22 nM	0.000256 s⁻¹	115000 M⁻¹ s⁻¹	45.1 min	9 RU	–	69326 (antibody, human IgG1, kappa, V domains shown, Tested as bivalent human IgG1 from CHO primary supernatant) VH: EVQLVESGGGLVQPGGSLRLSCAVSGFIFSSYEMNWVRQAPGKGLEWVSYISSSGSTIFYADSVKGRFTISRDNAKNSLYLQMNSLRAEDTAVYYCVSGVVLFDVWGQGTMVTVSS VL: EIVMTQSPATLSVSPGERATLSCRASQSVSSNFAWYQQKPGQAPRLLIYSASSRATGIPVRFSGSGSGTEFTLTISSLQSEDFAVYYCQQYNIWPRTFGQGTKVEIKR
16%	–	–	–	–	–	–	–	–	69348 scFv (VK-VH) (scFv, CHO supernatant; Vk-3xG4S-Vh) scFv: DIQMTQSPSSLSASVGDRVTITCRASQSIRNVLGWFQQKPGKAPQRLIYAASSLQSGVPSRFSGSGSGTEFTLTISSLQPEDFATYYCLQHNFYPLTFGGGTKVEIKGGGGSGGGGSGGGGSQVQLVESGGGVVQPGRSLRLSCAASGFTFTTYGMHWVRQAPGKGLEWVAVIWYDGSNKYYGDSVKGRFTISRDNSKNTLYLQMNSLRVDDTAVYYCTRTHGYTRSSDGFDYWGQGTLVTVSS
–	no binding (tested: 100 nM)	660 RU	0.448 nM	5.33e-05 s⁻¹	118000 M⁻¹ s⁻¹	217 min	11 RU	–	12839B (antibody, human IgG1, kappa, V domains shown, Tested as bivalent human IgG1 from CHO primary supernatant; also called H1H12839B; REGN17510) VH: QVQLVESGGGVVQPGRSLRLSCAASGFPFSNYVMYWVRQAPGKGLEWVALIFFDGKKNYHADSVKGRFTITRDNSKNMLYLQMNSLRPEDAAVYYCAKIHCPNGVCYKGYYGMDVWGQGTTVTVSS VL: not shown
–	–	–	–	–	–	–	–	0.0656 nM	31863B anti-human TfR IgG1 monoclonal antibody (antibody, V domains shown, Tested as bivalent IgG1 from CHO primary supernatant) VH: EVQLVESGGGLVQPGGSLRLSCAASGFTFNSYAMTWVRQAPGKGLEWVSFIGGSTGNTYYAGSVKGRFTISSDNSKKTLYLQMNSLRAEDTAVYYCAKGGAARRMEYFQHWGQGTLVTVSS VL: DIQMTQSPSSLSASIGDRVTITCRASQGISNYLAWYQQKPGKVPKLLIYAASTLQSGVPSRFSGSGSGTDFTLTISSLQPEDVATYYCQNHNSVPLTFGGGTKVEIKR
–	no binding (tested: 100 nM)	11 RU	7 nM	0.00439 s⁻¹	600000 M⁻¹ s⁻¹	2.6 min	5 RU	–	12834B (antibody, human IgG1, kappa, V domains shown, Tested as bivalent human IgG1 from CHO primary supernatant) VH: QVQLVQSGAEVKKPGASVKVSCKASGYTFTSYGISWVRQAPGQGLEWMGWISVYHGNTNYAQKFQGRVTMTTDTSTSTAYMELRSLRSDDTAVYYCAREGYYDFWSGYYPFDYWGQGTLVTVSS VL: not shown
0%	–	–	–	–	–	–	–	–	69348 scFv (VH-VK) (scFv) QVQLVESGGGVVQPGRSLRLSCAASGFTFTTYGMHWVRQAPGKGLEWVAVIWYDGSNKYYGDSVKGRFTISRDNSKNTLYLQMNSLRVDDTAVYYCTRTHGYTRSSDGFDYWGQGTLVTVSSDIQMTQSPSSLSASVGDRVTITCRASQSIRNVLGWFQQKPGKAPQRLIYAASSLQSGVPSRFSGSGSGTEFTLTISSLQPEDFATYYCLQHNFYPLTFGGGTKVEIK
–	no binding (tested: 100 nM)	1100 RU	1.18 nM	0.000199 s⁻¹	168000 M⁻¹ s⁻¹	57.9 min	13 RU	–	12845B (antibody, human IgG1, kappa, V domains shown, Tested as bivalent human IgG1 from CHO primary supernatant; also called H1H12845B; REGN17513) VH: EVQLVESGGGLVQPGGSLRLSCAASGFTVSNYEMNWVRQAPGKGLEWVSYISSSTSNIYYADSVKGRFTISRDNAENSLYLQMNSLRVEDTAVYYCVRDGIVVVPVGRGYYYYGLDVWGQGTTVTVSS VL: not shown
–	no binding (tested: 100 nM)	1280 RU	0.226 nM	4.26e-05 s⁻¹	190000 M⁻¹ s⁻¹	271 min	3 RU	–	69307 (antibody, human IgG1, kappa, V domains shown, Tested as bivalent human IgG1 from CHO primary supernatant) VH: EVQLVESGGGLVQPGGSLRLSCTASGFTFSNYWMTWVRQAPGKGLEWVANIKEDGSEKEYVDSVKGRFTISRDNAKNSLYLQMNSLRGEDTAVYYCARDGEQLVDYYYYYVMDVWGQGTTVTVSS VL: DIQMTQSPSSVSASVGDRVTITCRASQGISSWLAWYQQKPGKAPKLLIYAASSLQSGVPSRFSGSGSGTDFTLTISSLQPEDFATYYCQKADSLPYAFGQGTKLEIKR
–	no binding (tested: 100 nM)	11 RU	3.02 nM	0.00131 s⁻¹	433000 M⁻¹ s⁻¹	8.8 min	1 RU	–	12812B (antibody, human IgG1, kappa, V domains shown, Tested as bivalent human IgG1 from CHO primary supernatant) VH: QVQLVQSGAEVKKPGSSVRVSCKASRGTFSSYAISWVRQAPGQGLEWMGGIIPIFGTANYAQKFLARVTITADESTSTAYMELSSLRSEDTAVYYCAREKGWNYFDYWGQGTLVTVSS VL: DIQMTQSPPSVSASVGDRVTITCRASQGISSWLAWYQQKPGKAPKLLIYAASSLQSGVPSRFSGSGSGTDFTLTISSLQPEDFATYYCQQANSFPRTFGQGTKVEIKR
–	no binding (tested: 100 nM)	1100 RU	0.97 nM	0.000186 s⁻¹	192000 M⁻¹ s⁻¹	62.2 min	8 RU	–	69329 (antibody, human IgG1, kappa, V domains shown, Tested as bivalent human IgG1 from CHO primary supernatant) VH: EVQLVESGGGLVQPGGSLRLSCAASGFTFSNYWMTWVRQAPGKGLEWVANIKEDGSEKDYVDSVKGRFTISRDNAKNSLYLQMNSLRGEDTAVYYCARDGEQLVDYYYYYVMDVWGQGTTVTVSS VL: DIQMTQSPSSVSASVGDRVTITCRASQGISSWLAWYQQKPGKAPKLLIYAASSLQSGVPSRFSGSGSGTDFTLTISSLQPEDFATYYCQKANSFPYTFGQGTKLEIKR
–	no binding (tested: 100 nM)	1150 RU	0.67 nM	0.000116 s⁻¹	173000 M⁻¹ s⁻¹	99.8 min	4 RU	–	12841B (antibody, human IgG1, kappa, V domains shown, Tested as bivalent human IgG1 from CHO primary supernatant; also called H1H12841B; REGN17511) VH: EVQLVESGGGLVQPGGSLRLSCAASGFTFSNYWMNWVRQAPGKGLEWVANIKEDGGKKLYVDSVKGRFTISRDNAKNSLFLQMNSLRAEDTAVYYCAREDTTLVVDYYYYGMDVWGQGTTVTVSS VL: not shown
